Reference: PMC5686140, “Structural disorder and induced folding within two cereal, ABA stress and ripening (ASR) proteins” (Scientific Reports, 2017)

Target: the molecule itself
Test: native MS; native ESI-MS, Synapt G2-Si; proteins buffer-exchanged into 250 mM ammonium acetate, pH 8.0, infused at 15 μM; source temperature 30 °C

B1: alcohol dehydrogenase (enzyme, UniProt P00330 1-348, looked up)
chain: MSIPETQKGVIFYESHGKLEYKDIPVPKPKANELLINVKYSGVCHTDLHAWHGDWPLPVKLPLVGGHEGAGVVVGMGENVKGWKIGDYAGIKWLNGSCMACEYCELGNESNCPHADLSGYTHDGSFQQYATADAVQAAHIPQGTDLAQVAPILCAGITVYKALKSANLMAGHWVAISGAAGGLGSLAVQYAKAMGYRVLGIDGGEGKEELFRSIGGEVFIDFTKEKDIVGAVLKATDGGAHGVINVSVSEAAIEASTRYVRANGTTVLVGMPAGAKCCSDVFNQVVKSISIVGSYVGNRADTREALDFFARGLVKSPIKVVGLSTLPEIYEKMEKGQIVGRYVVDTSK
notes: alcohol dehydrogenase (ADH, a tetrameric protein), control of the native ESI-MS; Species surmised: the tetrameric ADH commonly used as a native MS standard is that of S. cerevisiae; also called ADH
stoichiometry N: 4
